Results published in patent publication US20250074980A1 (BRIGHAM AND WOMEN S HOSPITAL, published 2025).

T1: CEACAM3 on transfected HeLa cells (human, UniProt P40198 35-252)
T1 construct: whole, on cells; also called HeLa-CEACAM3; HeLa C3
T1 sequence (looked up): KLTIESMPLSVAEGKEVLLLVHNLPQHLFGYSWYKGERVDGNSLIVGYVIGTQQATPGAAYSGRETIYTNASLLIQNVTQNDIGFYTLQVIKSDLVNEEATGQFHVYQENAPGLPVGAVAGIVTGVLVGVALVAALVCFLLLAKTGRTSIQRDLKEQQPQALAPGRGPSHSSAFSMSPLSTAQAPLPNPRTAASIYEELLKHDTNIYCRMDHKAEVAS

T2: CEACAM8 on transfected HeLa cells (human, UniProt P31997 35-320)
T2 construct: whole, on cells; also called HeLa-CEACAM8; HeLa C8
T2 sequence (looked up): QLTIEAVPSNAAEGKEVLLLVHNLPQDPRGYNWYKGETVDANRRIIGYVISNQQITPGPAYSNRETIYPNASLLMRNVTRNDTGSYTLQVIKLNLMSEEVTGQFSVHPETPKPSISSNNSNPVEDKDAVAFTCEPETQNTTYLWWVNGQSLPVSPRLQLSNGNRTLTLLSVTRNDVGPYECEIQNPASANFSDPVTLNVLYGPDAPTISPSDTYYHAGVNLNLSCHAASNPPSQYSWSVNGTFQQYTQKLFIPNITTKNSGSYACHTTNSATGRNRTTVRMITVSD

T3: His-tagged CEACAM1 (human, UniProt P13688 35-428)
T3 construct: 45 kDa SPR analyte; also called CEACAM1-HIS; CEACAM1 analyte
T3 sequence: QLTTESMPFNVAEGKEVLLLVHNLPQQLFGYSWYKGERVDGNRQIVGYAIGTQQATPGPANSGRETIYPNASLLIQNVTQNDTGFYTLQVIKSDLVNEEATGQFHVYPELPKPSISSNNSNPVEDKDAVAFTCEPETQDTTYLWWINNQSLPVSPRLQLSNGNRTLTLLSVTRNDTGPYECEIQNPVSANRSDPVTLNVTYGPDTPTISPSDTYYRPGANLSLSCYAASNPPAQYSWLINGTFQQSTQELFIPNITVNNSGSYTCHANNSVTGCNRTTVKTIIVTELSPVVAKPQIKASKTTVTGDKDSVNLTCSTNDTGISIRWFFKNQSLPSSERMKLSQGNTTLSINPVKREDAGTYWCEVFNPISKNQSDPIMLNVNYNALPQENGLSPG

T4: CEACAM6 on transfected HeLa cells (human, UniProt P40199 35-320)
T4 construct: whole, on cells; also called HeLa-CEACAM6; HeLa C6
T4 sequence (looked up): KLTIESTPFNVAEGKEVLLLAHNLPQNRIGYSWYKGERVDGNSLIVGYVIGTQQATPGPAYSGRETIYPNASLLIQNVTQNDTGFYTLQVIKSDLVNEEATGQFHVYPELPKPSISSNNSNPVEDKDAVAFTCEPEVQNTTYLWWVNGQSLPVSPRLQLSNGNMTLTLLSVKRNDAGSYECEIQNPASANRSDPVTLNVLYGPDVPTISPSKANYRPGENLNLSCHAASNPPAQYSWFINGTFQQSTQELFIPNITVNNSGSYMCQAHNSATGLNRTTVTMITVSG


Experiments:
[1] = biological target: T1, CEACAM3 on transfected HeLa cells; experiment: flow cytometry, transfected HeLa
Summary of the method: (§1)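 Binding selectivity was assessed by flow cytometry and is expressed as the staining of each HeLa transfectant, each stably carrying a single CEACAM family member. The cells were kept at 37° C, 5.0% CO₂ in DMEM containing 10% fetal bovine serum. Staining used the test antibody followed by a fluorochrome-conjugated isotype-specific secondary antibody, and DAPI marked viability.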

[2] = biological target: T2, CEACAM8 on transfected HeLa cells; experiment: flow cytometry, transfected HeLa
Summary of the method: as §1

[3] = biological target: T3, His-tagged CEACAM1; experiment: SPR single-cycle, IgG captured
Method: As an alternative approach to assess the binding of the 36 antibody combinations and the three control antibodies to CEACAM1, a kinetic analysis was performed on a Biacore T200 (serial no. 1909913) running Biacore T200 Evaluation Software V2.0.1 (Uppsala, Sweden). All experiments were run at 25° C. with HBS-P+ running buffer (pH 7.4) (GE Healthcare, cat. no. BR100671). All kinetic experiments were performed using His-tagged CEACAM1 as the analyte. For all experiments, antibodies were immobilized onto a Series S Protein A sensor chip surface. For kinetic experiments, the amount of immobilized/captured ligand was limited to avoid mass transfer effects at the surface of the chip with the surface ideally having an analyte binding level (Rₘₐₓ) of 50-150 RUs. Using a MW of 45 kDa for the CEACAM1 analyte, 150 kDa for the antibody ligand (estimated value for IgG), 50 RU for Rmax and the stoichiometry (Sm) as 2 due to the ability of each antibody to bind 2 target molecules, a target response level of ˜75 RUs was set for capture of all the sample antibodies.
Single cycle analysis of the 36 antibody combinations and the three control antibodies was performed on purified antibodies (Vκ1 to Vκ6 variants) or on the supernatants of the transiently transfected HEK EBNA cells (Vκ7 to Vκ12 variants). In some instances, where supernatant was not available, purified chimeric antibody VH0/Vκ0 was spiked into HEK EBNA culture medium to use as a positive control. Antibodies were diluted in HBS-P+ to a concentration of 1 μg/ml (as determined by an IgG quantitation ELISA). At the start of each cycle, antibodies were loaded onto Fc2, Fc3 and Fc4 of a protein A chip and IgG captured at a flow rate of 8 μl/min to give an RU of ˜75. The surface was then allowed to stabilize. Single cycle kinetic data was obtained at a flow rate of 50 μl/min to minimize any potential mass transfer effects. Multiple repeats of the chimeric antibody VH0/Vκ0 were performed to check the stability of the surface and analyte over the kinetic cycles. The signal from the reference channel Fc1 (no antibody) was subtracted from that of Fc2, Fc3 and Fc4 to correct for differences in non-specific binding to a reference surface. A 5 point 2-fold dilution range from 3.125 to 50 nM CEACAM1 without regeneration between each concentration was used.

[4] = biological target: T4, CEACAM6 on transfected HeLa cells; experiment: flow cytometry, HeLa-CEACAM6 transfectants, % positive cells
Method: Binding selectivity for CEACAM1 was tested for the 24 humanized antibody variants that bound to CEACAM1 (see Table 3), as well as the chimeric control antibody VH0/Vκ0, by flow cytometry on HeLa cells transfected with CEACAM1, 3, 5, 6 and 8. […] There was no evidence of any staining of the HeLa-CEACAM3 or HeLa-CEACAM8 transfectants. […] Due to its favorable affinity to and selectivity for CEACAM1 as well as its favorable expression level, VH1/Vκ8 was chosen as the framework for affinity maturation.

binding result [1]	binding result [2]	Kd [3] [nM]	relative KD to VH0/Vκ0 [3]	binding result [4]	Binder
no binding	no binding	85	2	no binding	VH1/Vκ1 (antibody, IgG4, V domains shown, IgG4 (S241P), kappa) VH: EVQLLESGGGLVQPGGSLRLSCAASGFIFSSHGMSWVRQAPGKGLEWVATISSGGTYTYYPDSVKGRFTISRDNSKNTLYLQMNSLKAEDTAMYYCARHDFDYDAAWFAYWGQGTLVTVSS VL: QIVLTQSPALLSLSPGERATMSCSANSSVSYMYWYRQKPGQAPKPWIYLTSNLASGVPARFSGSGSGTDYTLTISSLEAEDFATYYCQQWSSNPPTFGQGTKLEIK
no binding	no binding	113	2.7	no binding	VH2/Vκ1 (antibody, IgG4, V domains shown, IgG4 (S241P), kappa) VH: EVQLLESGGGLVQPGGSLRLSCAASGFIFSSHGMSWVRQAPGKGLEWVATISSGGTYTYYPDSVKGRFTISRDNSKNTLYLQMNSLRAEDTAMYYCARHDFDYDAAWFAYWGQGTLVTVSS VL: QIVLTQSPALLSLSPGERATMSCSANSSVSYMYWYRQKPGQAPKPWIYLTSNLASGVPARFSGSGSGTDYTLTISSLEAEDFATYYCQQWSSNPPTFGQGTKLEIK
no binding	no binding	74	1.8	no binding	VH4/Vκ2 (antibody, IgG4, V domains shown, IgG4 (S241P), kappa) VH: EVQLLESGGGLVQPGGSLRLSCAASGFIFSSHGMSWVRQAPGKGLEWVSTISSGGTYTYYADSVKGRFTISRDNSKNTLYLQMNSLRAEDTAVYYCARHDFDYDAAWFAYWGQGTLVTVSS VL: EIVLTQSPATLSLSPGERATLSCRANSSVSYMYWYQQKPGQAPRPWIYLTSNRATGVPARFSGSGSGTDYTLTISSLEPEDFATYYCQQWSSNPPTFGQGTKLEIK
no binding	no binding	103	2.5	no binding	VH2/Vκ4 (antibody, IgG4, V domains shown, IgG4 (S241P), kappa) VH: EVQLLESGGGLVQPGGSLRLSCAASGFIFSSHGMSWVRQAPGKGLEWVATISSGGTYTYYPDSVKGRFTISRDNSKNTLYLQMNSLRAEDTAMYYCARHDFDYDAAWFAYWGQGTLVTVSS VL: EIVLTQSPATLSLSPGERATLSCRANSSVSYMYWYQQKPGQAPRPWIYLTSNRATGIPARFSGSGSGTDYTLTISSLEPEDFATYYCQQWSSNPPTFGQGTKLEIK
no binding	no binding	103	2.5	no binding	VH3/Vκ2 (antibody, IgG4, V domains shown, IgG4 (S241P), kappa) VH: EVQLLESGGGLVQPGGSLRLSCAASGFIFSSHGMSWVRQAPGKGLEWVATISSGGTYTYYADSVKGRFTISRDNSKNTLYLQMNSLRAEDTAMYYCARHDFDYDAAWFAYWGQGTLVTVSS VL: EIVLTQSPATLSLSPGERATLSCRANSSVSYMYWYQQKPGQAPRPWIYLTSNRATGVPARFSGSGSGTDYTLTISSLEPEDFATYYCQQWSSNPPTFGQGTKLEIK
no binding	no binding	131	3.1	no binding	VH1/Vκ4 (antibody, IgG4, V domains shown, IgG4 (S241P), kappa) VH: EVQLLESGGGLVQPGGSLRLSCAASGFIFSSHGMSWVRQAPGKGLEWVATISSGGTYTYYPDSVKGRFTISRDNSKNTLYLQMNSLKAEDTAMYYCARHDFDYDAAWFAYWGQGTLVTVSS VL: EIVLTQSPATLSLSPGERATLSCRANSSVSYMYWYQQKPGQAPRPWIYLTSNRATGIPARFSGSGSGTDYTLTISSLEPEDFATYYCQQWSSNPPTFGQGTKLEIK
no binding	no binding	81	1.9	no binding	VH3/Vκ4 (antibody, IgG4, V domains shown, IgG4 (S241P), kappa) VH: EVQLLESGGGLVQPGGSLRLSCAASGFIFSSHGMSWVRQAPGKGLEWVATISSGGTYTYYADSVKGRFTISRDNSKNTLYLQMNSLRAEDTAMYYCARHDFDYDAAWFAYWGQGTLVTVSS VL: EIVLTQSPATLSLSPGERATLSCRANSSVSYMYWYQQKPGQAPRPWIYLTSNRATGIPARFSGSGSGTDYTLTISSLEPEDFATYYCQQWSSNPPTFGQGTKLEIK
no binding	no binding	120	2.9	no binding	VH4/Vκ4 (antibody, IgG4, V domains shown, IgG4 (S241P), kappa) VH: EVQLLESGGGLVQPGGSLRLSCAASGFIFSSHGMSWVRQAPGKGLEWVSTISSGGTYTYYADSVKGRFTISRDNSKNTLYLQMNSLRAEDTAVYYCARHDFDYDAAWFAYWGQGTLVTVSS VL: EIVLTQSPATLSLSPGERATLSCRANSSVSYMYWYQQKPGQAPRPWIYLTSNRATGIPARFSGSGSGTDYTLTISSLEPEDFATYYCQQWSSNPPTFGQGTKLEIK
no binding	no binding	143	3.5	no binding	VH1/Vκ11 (antibody, IgG4, V domains shown, IgG4 (S241P), kappa) VH: EVQLLESGGGLVQPGGSLRLSCAASGFIFSSHGMSWVRQAPGKGLEWVATISSGGTYTYYPDSVKGRFTISRDNSKNTLYLQMNSLKAEDTAMYYCARHDFDYDAAWFAYWGQGTLVTVSS VL: EIVLTQSPATLSLSPGERATLSCRANSSVSYMYWYQQKPGQAPRPWIYLTSNRATGIPARFSGSGSGTDYTLTISSLEPEDFAVYYCQQWSSNPPTFGQGTKLEIK
